Target: intracellular product of the soybean Rps1b gene (soybean)
Experiment: cell-based or functional assay

## mature Avr1b (lacking the secretory leader), Phytophthora sojae
  Killing in presence of Rps1b (ratio of GUS spots): 0.22
